# Test results reported in paper doi:10.1101/2024.09.04.610023 (bioRxiv, 2024).
# T1: Purified human GST-PABPN1 (human, UniProt Q86U42-1 1-306)
# T1 sequence (looked up): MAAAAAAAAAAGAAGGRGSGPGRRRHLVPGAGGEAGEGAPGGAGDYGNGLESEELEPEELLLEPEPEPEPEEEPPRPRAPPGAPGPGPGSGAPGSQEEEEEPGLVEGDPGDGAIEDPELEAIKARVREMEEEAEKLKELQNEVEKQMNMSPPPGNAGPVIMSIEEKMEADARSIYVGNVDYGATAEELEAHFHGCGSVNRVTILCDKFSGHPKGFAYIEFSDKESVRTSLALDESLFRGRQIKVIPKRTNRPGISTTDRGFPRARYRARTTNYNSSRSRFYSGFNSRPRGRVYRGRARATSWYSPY
# Molecular target: T1, Purified human GST-PABPN1
# Assay: peptide or protein array
binder,measurement,value
"TQIFEDPREFLSHL (peptide, UniProt Q63053 211-224, looked up) [Arc array peptide 211-224]",binding result,binds
"QPKFKRFLRHPLPK (peptide, UniProt Q63053 330-343, looked up) [Arc array peptide 330-343]",binding result,binds
"LWRKRDLYQTLYVD (peptide, UniProt Q63053 302-315, looked up) [Arc array peptide 302-315]",binding result,binds
